Here are results for one molecule from patent publication US20200239597A1, “AN ANTI-APOPTOTIC FUNCTION OF PKM2 AND INTRACELLULARLY EXPRESSED SCFV ANTIBODIES” (La Jolla Institute for Allergy and Immunology, priority 2017, published 2020).

In test [1] the target is T1, pyruvate kinase M2 (PKM2) (Homo sapiens, UniProt P14618).
T1 construct: some intrabodies precipitated specific cellular proteins; endogenous in cells; host or cells: HEK293T (293T)
The test can be described thus: Target protein immunoprecipitation (FLAG pull-down, mass spectrometry, immunoblot). The format is binding. The note with it: Triton X-100 extracts of 293T cells, anti-FLAG beads. Here is the method:
FIG. 1 C is a photograph of a non-limiting SDS-PAGE gel with silver stain from an immunoprecipitation assay using antibodies encoded by DNA sequences isolated from FIG. 1B. […] Intrabodies that rescued cells from BimS-induced death were chosen for pull-down analysis as described in Methods. Left panel: Triton™-X-100 (1%) cell extracts were incubated with anti-FLAG beads, then proteins eluted with 3×FLAG peptide and separated by SDS-PAGE with silver stain. Specific bands are marked with dots; some bands (e.g. at 37 and 70 kD) are nonspecific. […] The bands near 25 kD are the scFv polypeptides, whose expression levels varied.
Flag-tagged intrabody was introduced along with a tandem Strep-tag by PCR into the same lentiviral vector used for selection. 293T cells infected with the intrabody lentivirus were incubated at 30° C. for 72 h as described above. After washing with cold PBS, 5×10^8 cells were lysed for 15 minutes on ice in lysis buffer (50 mM Tris HCl, pH 7.4, 150 mM NaCl, 1 mM EDTA, 1% Triton™ X-100). Cell lysates were clarified by centrifugation for 15 minutes at 4° C. at 16,000×g. The total protein content of the soluble fraction was quantified using the BCA assay. For pull-down experiments, 10 mg of protein lysate was incubated with 200 al of EZview™ Red anti-FLAG® M2 Affini-ty Gel (Sigma-Aldrich) for 2 h at 4° C. Beads were washed 3 times in wash buffer (50 mM Tris HCl, pH 7.4, 150 mM NaCl, 1 mM EDTA, 0.1% Triton X-100). Elution was performed under native conditions by competition with 3×FLAG peptide following the manufacturer's protocol. Eluates were used for the second step purification using Strep-Tactin Superflow Plus™ [Qiagen], following the manufacturer's instructions. The final two-step purified protein was used for SDS-PAGE analysis. Bands of interest were cut out from the gel and subjected to in-gel digestion with trypsin (Promega, Fitchburg, Wis., USA) followed by MALDI TOF/TOF mass spectrometry analysis (Biomolecular and Proteomics Mass Spectrometry Facility, University of California at San Diego).
On the technique in general: In western blotting, separated proteins are transferred to a membrane and probed.

The test system of a further test is HCT116 and U2OS cells. The test can be described thus: Clonogenic survival with etoposide or staurosporine. The format is cell-based. The following applies: 150 nM etoposide. Here is the method:
5×10^5 HCT116 and U2OS cells were plated and transfected with BimS expression plasmid including 150 nM etoposide or 1 μM Staurosporine. The plates were fixed and stained with crystal violet after 5 days and the total areas of colonies were measured. Mean, SD and P values were calculated from 3 individual plates.

Test [2] relates to 293T cells. The test can be described thus: Protection from death induced by transient expression of tBid. Format: cell-based, human. The following applies: surviving cells counted after 72 h. Here is the method: FIG. 2B is a non-limiting graph representation of a transfection assay to assess the effect of IB5 in cells transfected with pro-apoptotic proteins BimS and tBid encoding cDNA. […] 293T cells were transfected treated with […] tBid or BimS cDNA. Surviving cells were counted after 72 h.

The test system of test [3] is 293T cells. The test can be described thus: Rescue of 293T cells from BimS-induced apoptosis (cell viability). Format: cell-based, human. The method, then:
Human BimS cDNA was subcloned into a pShooter™ mammalian expression vector (pCMV/myc/cyto; Invitrogen), to allow the expression of BimS driven by a CMV promoter. […] 293T cells were then infected with the intrabody library and then transfected with 4 μg/ml BimS plasmid, using 10 l of Lipofectamine® 2000 transfection reagent (Thermo Fisher). After 24 h post-infection, the culture medium was replaced with fresh MEMc medium supplemented with 10% FBS and penicillin/streptomycin (Gibco-Invitrogen).
Cell viability was measured with a Countess™ Automated Cell Counter (Invitrogen) using trypan blue. For the clonogenic survival assay, 293T or MEFs cells were seeded in 6-well plates at 1×10^5 cells/well in a 2-ml volume, transfected with BimS cDNA and incubated for 24 h. Afterwards, the medium was replaced and the cells cultured for 3-4 days. Thereafter, the plates were rinsed with PBS and fixed and stained with a solution containing crystal violet (0.5% w/v) and glutaraldehyde (6% v/v) as described (Franken et al., 2006).

T1 sequence (P14618 whole entry): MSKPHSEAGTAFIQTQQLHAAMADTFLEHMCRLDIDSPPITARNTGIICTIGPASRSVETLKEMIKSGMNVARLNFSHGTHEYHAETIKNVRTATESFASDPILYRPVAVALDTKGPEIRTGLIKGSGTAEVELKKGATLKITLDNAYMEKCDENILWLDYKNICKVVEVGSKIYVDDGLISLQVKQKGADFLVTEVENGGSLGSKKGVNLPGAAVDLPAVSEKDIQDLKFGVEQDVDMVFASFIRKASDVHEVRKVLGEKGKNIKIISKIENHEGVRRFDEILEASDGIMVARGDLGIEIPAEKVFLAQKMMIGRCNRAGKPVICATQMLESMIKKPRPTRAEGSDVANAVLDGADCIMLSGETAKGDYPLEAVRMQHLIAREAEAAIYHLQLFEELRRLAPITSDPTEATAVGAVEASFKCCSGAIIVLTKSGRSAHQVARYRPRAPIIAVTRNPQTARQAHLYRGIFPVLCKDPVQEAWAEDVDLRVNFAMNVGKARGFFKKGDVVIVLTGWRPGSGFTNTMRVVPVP

B1: IB5: intracellularly expressed single-chain antibody (scFv) specific for PKM2, SEQ ID NO: 2; also made as monovalent recombinant scFv in E. coli (protein)
scFv: MAQVQLVETGPGLVKPSETLSLRCTVSGGSFDNYYWNWIRQPPGKGLEYIGYVFPSTGATNYNPSLGSRVTISLDTSKNQFSLTLTSVTTADTAIYYCVRSGHDLWTGSTWFDPWGQWTTVTVSSGGGGSGGGGSGGGGSEIVLTQSPGTLSLSPGERATLSCRASQSVSSSYLAWYQQKPGQAPRLLIYGASSRATGIPDRFSGSGSGTDFTLTISRLEPEDIAVYYCQQRSNWPRTFGQGTKVEIKRGLGGLASVDYKDDDDK
modifications: artificial intrabody clone 5
notes: also made as monovalent recombinant scFv in E. coli
Regarding B1, in test [1], the “protein pulled down from cell extracts” value is reported as “pulled down a 55-kD protein now identified as pyruvate kinase M2”. In addition, in the test on HCT116 and U2OS cells, the “clonogenic survival in cells treated with etoposide” value is “promoted clonogenic survival”. Further, in the test on 293T cells [2], the “protection from death induced by transient expression of tBid” value is “protected from death”. Moreover, the “percentage of 293T cells rescued from BimS-induced death” value with 293T cells [3] (single intrabody expressed from lentivirus, BimS cDNA transfection) is 15-20%. The “survival effect when expressed with a weaker promoter” value in the test on 293T cells [3] (weaker promoter, not shown) was “reduced”.
